# Patent US20190195891A1, “DIAGNOSTIC AND THERAPEUTIC USES OF EXOSOMES” (Yeda Research and Development Co. Ltd., priority 2016, published 2019)
# Entries after “also recorded” stand apart in the source; their conditions may differ.
# What was measured:
# [1] = test system: HepG2 cells; assay: Fate of EGFR after EGF binding in control and MLKL knocked-down HepG2 cells (immunocytochemistry); format: cell-based, human; conditions: 2 hours after ligand binding; for cellular levels of the EGFR: HepG2 cells after EGF application; for difference in EGFR between cells expressing MLKL and cells deficient of it: control vs MLKL knocked-down HepG2 cells
# Procedure: (§1) Bafilomycin A1 from Santa Cruz Biotechnology was applied to the cells at 100 nM. Chloroquine was applied at 25 μM, 4-hydroxytamoxifen was applied at 1 μM, and ionomycin was applied at 1 μM, ultra pure LPS, applied at 1 μg/ml (all from Sigma). Human ECF from Biological industries, mouse EGF from ProSpec and human TNF from Ybdy were biotinylated using an EZ-Link biotinylation kit (Thermo Fisher Scientific) and then applied to the cells at 5 μg/ml or injected intravenously into mice at a dose of 10 μg/mouse. Bovine serum albumin (BSA), tagged with gold particles (BSA-gold, CMC Utrecht), was applied to the cells at an optical density of 2. To trigger necroptosis, TNF (1000 units/ml) was applied together with the bivalentIAP (inhibitor of apoptosis protein) antagonist BV6 and the caspase inhibitor z-VAD-fmk, both from WuXu App Tec, at concentrations of 1 μM and 20 μM respectively. IL-1β ELISA kit was from eBiosicne.
# Prior to ligand treatment the cells were incubated for 12 hours in serum-free medium. Biotinylated EGF and TNF were applied to the cells for 30 minutes on ice in CO2-independent medium (Thermo Fisher Scientific), and this was followed by rinsing and rther incubation without those ligands at 37° C. For western blot analysis, cellular proteins were extracted at the indicated times in RIPA buffer (20 mM Tris-HCl pH 7.5, 150 mM NaCl, 1 mM EDTA, 1 mM EGTA, 1% NP-40, 0.5% sodium deoxycholate, 0.1% sodium dodecyl sulfate (SDS), protease and phosphatase inhibitors). For immunofluorescence microscopy, cells were fixed in 4% paraformaldehyde (PFA) in PBS and then stained with fluorescence-conjugated antibodies.
# Immunostaining was performed as described previously [Yoon S. et al., Cell death and differentiation (2016) 23, 253-260]. Briefly, cells fixed with 4% PFA in PBS were permeabilized by incubation in methanol at −20° C. for 10 minutes, followed by incubation in blocking buffer (20% normal goat serum (NGS), 2% BSA, 0.3 M glycine and 0.1% Tween-20 in PBS, pH 7.2). Following incubation with the indicated antibodies, images were obtained using an Olympus IX 81 confocal microscope (Olympus Imaging), with a UPLSAPO 60×1.35 NA oil objective and FluoView FV1000 software (Olympus Imaging). Images were processed using Imaris software from Bitplane.
# [2] = test system: MEFs; assay: Exosome generation by MEFs, ionomycin treatment; format: cell-based, mouse
# Procedure: as §1, with “To trigger necroptosis, TNF (1000 units/ml) was applied together with the bivalentIAP (inhibitor of apoptosis protein) antagonist BV6 and the caspase inhibitor z-VAD-fmk, both from WuXu App Tec, at concentrations of 1 μM and 20 μM respectively. IL-1β ELISA kit was from eBiosicne.” left out
# (§2) In all experiments aimed at assessing the generation of exosomes by cultured cells, the FBS supplementing the growth medium was pre-depleted of bovine exosomes by centrifugation at […] for 18 hours. […] The stimuli whose effect on exosome generation was to be assessed were applied for the indicated times towards the end of this 12 hour period. […] Size spectra and amounts of the particles in the exosome preparations were determined by Nanoparticle Tracking Analysis using the NanoSight NS300 device (Malvern Instruments) according to the manufacturer's instructions.
# [3] = test system: HepG2 cells; assay: Exosome generation by HepG2 cells, ionomycin treatment; format: cell-based, human
# Procedure: as §1, with “To trigger necroptosis, TNF (1000 units/ml) was applied together with the bivalentIAP (inhibitor of apoptosis protein) antagonist BV6 and the caspase inhibitor z-VAD-fmk, both from WuXu App Tec, at concentrations of 1 μM and 20 μM respectively. IL-1β ELISA kit was from eBiosicne.” left out
# as §2
# [4] = test system: HT29 cells; assay: Exosome generation by HT29 cells after triggering necroptosis (Nanoparticle Tracking Analysis, western blot); format: cell-based, human; conditions: HT-29 cells treated with TBZ
# Procedure: as §1, with “To trigger necroptosis, TNF (1000 units/ml) was applied together with the bivalentIAP (inhibitor of apoptosis protein) antagonist BV6 and the caspase inhibitor z-VAD-fmk, both from WuXu App Tec, at concentrations of 1 μM and 20 μM respectively. IL-1β ELISA kit was from eBiosicne.” left out
# as §2
# Cells and liver samples were extracted in RIPA and in 1% SDS, respectively. […] Band intensity was quantified using the ImageJ software.
# [5] = test system: MLKL knocked-down HT-29 cells; assay: Yield of exosomes in MLKL knocked-down HT-29 cells inducibly expressing MLKL mutants; format: cell-based, human; conditions: inducible expression, compared to wild-type MLKL
# Excerpt: The various mutants of MLKL were expressed inducibly in HT-29 cells in which the endogenous MLKL mRNA was constitutively knocked down. Expression was achieved by lentiviral infection with the GEV16/pF5x UAS system as described previously [Dunning C J et al. The EMBO Journal (2007) 26, 3227-3237, doi:10.1038/sj.emboj.7601748].
# In all experiments aimed at assessing the generation of exosomes by cultured cells, the FBS supplementing the growth medium was pre-depleted of bovine exosomes by centrifugation at […] for 18 hours. Except where otherwise indicated, the exosomes were collected after 12 hours of incubation. The stimuli whose effect on exosome generation was to be assessed were applied for the indicated times towards the end of this 12 hour period. Unless otherwise indicated, TBZ was applied for 4 hours. For recovery of exosomes from the mice, mouse blood samples were collected in MiniCollect®TUBEs (Greiner Bio-One) and centrifuged at 3000 rpm for 15 minutes. Mouse plasma and cell-growth media were passed through 0.2 μm filters and centrifuged at […] for 90 minutes, after which the pellet was suspended in phosphate-buffered saline (PBS) and re-sedimented by centrifugation as above. Size spectra and amounts of the particles in the exosome preparations were determined by Nanoparticle Tracking Analysis using the NanoSight NS300 device (Malvern Instruments) according to the manufacturer's instructions.
# [6] = test system: MLKL knocked-down HT-29 cells; conditions: cited from earlier work; for death in HT29 cells on inducible expression: Yoon et al. (2016); for induction of necroptosis/death by TBZ: as previously reported (Sun et al. 2012; Quarato et al. 2016)
# [7] = test system: MLKL knocked-down HepG2 cells; assay: Levels of EGF and EGFR in MLKL knocked-down HepG2 cells inducibly expressing MLKL mutants (western blot); format: cell-based, human; conditions: EGF applied 7 hours after induction
# [8] = test system: HepG2 cells; assay: Cell death of HepG2 cells inducibly expressing MLKL mutants; format: cell-based, human; conditions: inducible expression in HepG2 cells
molecule,measurement,setting,value
CO/C1=C\C(C)=C\[C@@H](C)[C@@H](O)[C@@H](C)C/C(C)=C/C=C/[C@H](OC)[C@@H]([C@@H](C)[C@@H](O)[C@H](C)[C@@]2(O)C[C@@H](O)[C@H](C)[C@@H](C(C)C)O2)OC1=O [bafilomycin A1],cellular levels of the EGFR,[1],withhold the decrease
same,difference in EGFR between cells expressing MLKL and cells deficient of it,[1],obliterate the difference
same,difference in EGFR between cells expressing MLKL and cells deficient of it,[1]; listed as Baf A1,equal accumulation of EGFR
CCN(CC)CCCC(C)Nc1ccnc2cc(Cl)ccc12 (centres unmarked) [chloroquine],cellular levels of the EGFR,[1],withhold the decrease
same,difference in EGFR between cells expressing MLKL and cells deficient of it,[1],obliterate the difference
same,difference in EGFR between cells expressing MLKL and cells deficient of it,[1]; listed as CQ,equal accumulation of EGFR
C[C@H](CCC(=O)O)C[C@H](C)C[C@H](C)C(=O)/C=C(\O)[C@H](C)C[C@H](C)C/C=C/[C@@H](C)[C@@H](O)[C@@H](C)[C@@H](O)C[C@@H]1CC[C@@](C)([C@H]2CC[C@@](C)([C@@H](C)O)O2)O1 [ionomycin],generation of exosomes,[2]; MEFs,enhanced generation of exosomes
same,generation of exosomes,[2]; MEFs deficient of MLKL,no such enhancement
same,generation of exosomes,[3]; HepG2 cells,enhanced generation of exosomes
same,generation of exosomes,[3]; HepG2 cells deficient of MLKL,no such enhancement
CN1C(=O)C(Cc2c[nH]c3ccccc23)NC1=S (centres unmarked) [necrostatin-1],effect on enhancement of exosome generation by TBZ,[4],block this enhancement; also recorded: reversal
"T357E/S358D: MLKL with phospho-mimetic mutations of the residues that are the targets of phosphorylation by RIPK3 (protein, UniProt Q8NB16 1-471, looked up, variant T357E S358D) Mixed lineage kinase …: MENLKHIITLGQVIHKRCEEMKYCKKQCRRLGHRVLGLIKPLEMLQDQGKRSVPSEKLTTAMNRFKAALEEANGEIEKFSNRSNICRFLTASQDKILFKDVNRKLSDVWKELSLLLQVEQRMPVSPISQGASWAQEDQQDADEDRRAFQMLRRDNEKIEASLRRLEINMKEIKETLRQYLPPKCMQEIPQEQIKEIKKEQLSGSPWILLRENEVSTLYKGEYHRAPVAIKVFKKLQAGSIAIVRQTFNKEIKTMKKFESPNILRIFGICIDETVTPPQFSIVMEYCELGTLRELLDREKDLTLGKRMVLVLGAARGLYRLHHSEAPELHGKIRSSNFLVTQGYQVKLAGFELRKTQEDMSLGTTREKTDRVKSTAYLSPQELEDVFYQYDVKSEIYSFGIVLWEIATGDIPFQGCNSEKIRKLVAVKRQQEPLGEDCPSELREIIDECRAHDPSVRPSVDEILKKLSTFSK",generation of exosomes,[5],levels higher than in cells expressing the wild type protein
same,death in HT29 cells on inducible expression,[6],triggers death
same,intracellular degradation of EGF and EGFR following uptake,[7],facilitated
same,death of HepG2 cells within the time of the test,[8],no death
"5A: MLKL in which Lys5, Lys16 Arg17, and Lys50 Arg51 were replaced with alanine (protein, UniProt Q8NB16 1-471, looked up, variant K5A K16A R17A K50A R51A) Mixed lineage kinase …: MENLAHIITLGQVIHAACEEMKYCKKQCRRLGHRVLGLIKPLEMLQDQGAASVPSEKLTTAMNRFKAALEEANGEIEKFSNRSNICRFLTASQDKILFKDVNRKLSDVWKELSLLLQVEQRMPVSPISQGASWAQEDQQDADEDRRAFQMLRRDNEKIEASLRRLEINMKEIKETLRQYLPPKCMQEIPQEQIKEIKKEQLSGSPWILLRENEVSTLYKGEYHRAPVAIKVFKKLQAGSIAIVRQTFNKEIKTMKKFESPNILRIFGICIDETVTPPQFSIVMEYCELGTLRELLDREKDLTLGKRMVLVLGAARGLYRLHHSEAPELHGKIRSSNFLVTQGYQVKLAGFELRKTQTSMSLGTTREKTDRVKSTAYLSPQELEDVFYQYDVKSEIYSFGIVLWEIATGDIPFQGCNSEKIRKLVAVKRQQEPLGEDCPSELREIIDECRAHDPSVRPSVDEILKKLSTFSK",generation of exosomes,[5],failed to generate exosomes
same,induction of necroptosis/death by TBZ,[6],arrest death induction
"K230M/Q356A: MLKL with mutations within the ATP-binding pocket imposing the conformational change attained after phosphorylation (protein, UniProt Q8NB16 1-471, looked up, variant K230M Q356A) Mixed lineage kinase …: MENLKHIITLGQVIHKRCEEMKYCKKQCRRLGHRVLGLIKPLEMLQDQGKRSVPSEKLTTAMNRFKAALEEANGEIEKFSNRSNICRFLTASQDKILFKDVNRKLSDVWKELSLLLQVEQRMPVSPISQGASWAQEDQQDADEDRRAFQMLRRDNEKIEASLRRLEINMKEIKETLRQYLPPKCMQEIPQEQIKEIKKEQLSGSPWILLRENEVSTLYKGEYHRAPVAIMVFKKLQAGSIAIVRQTFNKEIKTMKKFESPNILRIFGICIDETVTPPQFSIVMEYCELGTLRELLDREKDLTLGKRMVLVLGAARGLYRLHHSEAPELHGKIRSSNFLVTQGYQVKLAGFELRKTATSMSLGTTREKTDRVKSTAYLSPQELEDVFYQYDVKSEIYSFGIVLWEIATGDIPFQGCNSEKIRKLVAVKRQQEPLGEDCPSELREIIDECRAHDPSVRPSVDEILKKLSTFSK",generation of exosomes,[5],levels higher than in cells expressing the wild type protein
same,death in HT29 cells on inducible expression,[6],triggers death
same,intracellular degradation of EGF and EGFR following uptake,[7],facilitated
same,death of HepG2 cells within the time of the test,[8],about 1%
"T357A/S358A: MLKL with the RIPK3 targeted residues replaced with alanine (protein, UniProt Q8NB16 1-471, looked up, variant T357A S358A) Mixed lineage kinase …: MENLKHIITLGQVIHKRCEEMKYCKKQCRRLGHRVLGLIKPLEMLQDQGKRSVPSEKLTTAMNRFKAALEEANGEIEKFSNRSNICRFLTASQDKILFKDVNRKLSDVWKELSLLLQVEQRMPVSPISQGASWAQEDQQDADEDRRAFQMLRRDNEKIEASLRRLEINMKEIKETLRQYLPPKCMQEIPQEQIKEIKKEQLSGSPWILLRENEVSTLYKGEYHRAPVAIKVFKKLQAGSIAIVRQTFNKEIKTMKKFESPNILRIFGICIDETVTPPQFSIVMEYCELGTLRELLDREKDLTLGKRMVLVLGAARGLYRLHHSEAPELHGKIRSSNFLVTQGYQVKLAGFELRKTQAAMSLGTTREKTDRVKSTAYLSPQELEDVFYQYDVKSEIYSFGIVLWEIATGDIPFQGCNSEKIRKLVAVKRQQEPLGEDCPSELREIIDECRAHDPSVRPSVDEILKKLSTFSK",generation of exosomes,[5],compromised
same,induction of necroptosis/death by TBZ,[6],compromised
